We go through 74 sequences from the supplement of paper PMC12636428.

The series has as its system Saccharomyces cerevisiae. The experiment in a line: transcriptional activation domain activity (GFP:mCherry ratio, weighted mean of sorted bins, harmonized to initial dataset scale) (arbitrary fluorescence ratio units); higher = stronger transcriptional activation. The note with it: beta-estradiol 1 µM; induction time 4 h. The method in brief:
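Protein tiles carrying barcodes and fused to an estradiol-inducible synthetic transcription factor were placed at the URA3 locus of yeast diploids with a GFP reporter. Following 4 hours at 30 °C in SC with 1 uM beta-estradiol, cells were sorted into 8 GFP:mCherry bins, barcodes were sequenced, and tiles with fewer than 50 reads were discarded. Activation activity is given as the read-weighted mean of bin median fluorescence, averaged across barcodes and linearly mapped to the initial dataset scale.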

In the case of “ELYGKPSMEAIFLLFAHYLYAGACAKGEHLIITTWDMYYEKLGFMLIFWNMAG”, the “transcriptional activation domain activity” value was 64300.

As for “ELYIYSTVRYSFSDYLIPSGYNVCAFLLSCLMFNGDLMVELVLVMRSWFKRIL”, the “transcriptional activation domain activity” value was found to be 66500. Consider “EMAVACISVLILIGYNTIILYVYPLYPTRSPLRLSETYINHLLSNFLWWFIMF”, for which the “transcriptional activation domain activity” value is 59100.

For “EMGLSTAPGHQTAEFTITGIGLILKTLWLCADLITFLLSLQRLIFHALVLLFS”, the “transcriptional activation domain activity” value turned out to be 64300. As to “EMGTLAALLWQPEIRDLTTYLRDIRVAVANVLDVFAMIEPSRLIAKIKIHLLA”, the “transcriptional activation domain activity” value was found to be 43100. Regarding “EMIMGFFFKNIVWTLTLFWYQIFCQFNGSMMFDYALVTLFNLVFTSLPIMCMG”, the “transcriptional activation domain activity” value was 52100.

Regarding “EMLSASKGRKKARMEEEDEDEWAGDGASKAKAKGKKAAKKPAKARAPKGKAAA”, the “transcriptional activation domain activity” value stood at 37400. “EMRHVILIVFIGMVGCWISQWVFWVGFLKLYSGQGYCPPRLGTLALNWILFSV”: the “transcriptional activation domain activity” value came to 43200. Take “EMVDIFAHMDNIERLIAPFSVLAEHEVFHFNMLRIYYLTLRLLVLLHGVIEVK”: the “transcriptional activation domain activity” value was 75200.

Consider “EMVKTESVATSSTTTTKTESEGAVVKEEKMASPSPTRVKVEKVEVKRVPTISL”, for which the “transcriptional activation domain activity” value turned out to be 15700. Turning to “ENAGNENAVDVENAGNENTAPEAKGKKNKGNAAANENAAGNAQAGEAGQVAAN”, the “transcriptional activation domain activity” value is 47200. To “ENASEPQKQEAEEKPKSTTAASTSVPRSSKPSVEAKPVRKSRRTGAQRRAPSQ” belongs 38800. Regarding “ENDGEEVEGEEKESSQGAGGLMGRFTKETDDVRLGASQNIGLVLQYLTSFIAC”, the “transcriptional activation domain activity” value is 17000. Take “ENEDDAFGALNYNSLDATTMSAFDNNVDPFNILKSSPAQDQQFIKPSMMLSDN”: the “transcriptional activation domain activity” value amounted to 77200.

For “ENEQDSLALDDLDRAFELVEGMDMDWMMPSHAHHSPATTATIKPRLLYSPLIH”, the “transcriptional activation domain activity” value came to 74200.

As to “ENGRNLLRELLIFVAAWDLREEELYFKFMVKILESILVNGYLPYAYHAFREYD”, the “transcriptional activation domain activity” value came out at 62000. Take “ENHPPGVAAQILIARISWILWHSVEQIRITVWVVGRKFMMVLLQGTVPRISVR”: the “transcriptional activation domain activity” value is 71600. Regarding “ENKKEEPKSAKPTSKKAEKPVSKKADAETGEKRAADETKPAEKPASKKAKTDA”, the “transcriptional activation domain activity” value is 30800. Regarding “ENLRTVGLGSVRDICLRNASEQAILTIIDFPLRVLAMIAQIRTGLWVRNGFAI”, the “transcriptional activation domain activity” value was 53000. As to “ENNDQFNNKTRKRKRRMSSTSSTSKASRKNSISRKNSAVTTAPAQKDDVENNK”, the “transcriptional activation domain activity” value was below 6570.

Consider “ENNNYAVDLAKSNGMHIVGIQGSDIVDGRKTLVLGLVWQLMRLSIYKTLSSLT”, for which the “transcriptional activation domain activity” value is 41900.

Consider “ENNVPLLERFREFPWLLSDLIFPFMMEYMLVWYLIWETILNILAELTYFADRS”, for which the “transcriptional activation domain activity” value came out at 27300. Under “ENSEDALHNSETMDLLGTLSHGNDFALEYNFDFTLLNEIDMLIGGNTNDGLSK” stands 101000; under “ENTRHRIFSIFRKSDLGLYALRGSQTLMNYSRVLGLLIRKWVITALRVCMWLG”, 53000; under “ENVRGIMTENIERVLERGERIDLLVDKTGRLNVNAGEFRRRSRGLRRRMWWKN”, 37700. With “ENVYRPFLMVYTEAIILIFSFYLIILYIVLFTFLEGYPYIFSRVYGISDSLTF”, the “transcriptional activation domain activity” value was 40900. Under “EPAAEGAAGADKPAEEAKPAEDKPAETKPEETAEGAKTEETPAPAESAAAPAA” stands 37800.

For the sequence “EPAEEDSKPEEPAAAAEPEAEVKEEPAEEPAAPAEPKAEAEPEKADETPAAEA”, the “transcriptional activation domain activity” value was found to be 24000. Regarding “EPAEEEEEEDDDDEDDPEVRRKEELRARMAKMSAGMGGMGGMMNPFAAPVAPG”, the “transcriptional activation domain activity” value is 62200.

On to “EPAETPAETPAPVEPVVEEKKEETPAPVKETPAPTPNPAAAPAPQQQQPAAAK”, for which the “transcriptional activation domain activity” value amounted to 26400. Regarding “EPAVVKAVAAVAAQDGGDGREEHRREKKKKKKKREKREKRELVAGQEGGGGEG”, the “transcriptional activation domain activity” value is below 6570. Under “EPEQVEAVVEVEEKQEEVKPVEEEIKVEQPVVEQQQEEPTPVVSQVPASTPLP” stands below 6570; under “EPERKQSRRRQSRGRGRKGVADSDTESVPRSDVSASGGRRNRQRQRQKGGKQQ”, 48900. Regarding “EPESKPAPARGAQPAQRGNFRGGRGGHRGARGGRGRGGYQERPRRQEEEKPTK”, the “transcriptional activation domain activity” value amounted to 9620. For “EPFHLQHQSNHVYGKIVIGDSLMDEWFIVYLLRELSLWLDHLVIRYIYRRLMI”, the “transcriptional activation domain activity” value was 59900. On to “EPGEEYHHSNGTNTDNNETTGADDTDDNNNNNNNNNKNGNNSSSTINNNNNNY”, for which the “transcriptional activation domain activity” value was 35700.

Take “EPHNDIILDLLFTLAYWHALAKLRLHTDFTLSKLEEVTMFLGRQLRYLRRVTC”: the “transcriptional activation domain activity” value amounted to 51800. For the sequence “EPIQNEIAKLFHSGGDSVVDILFSQTSATEFVTVGGTGNVYHWDMEYSFSRND”, the “transcriptional activation domain activity” value is 67800. In the case of “EPKAEEPAPRKSDEGQGKDKEQPKEIKEEEQQRGRRPDKGKARVVVQGFAAEE”, the “transcriptional activation domain activity” value came out at 23200.

On to “EPKKAKIGAPKRKKKEVIEDAEAGAGAETEEGEAPPKKKRGGRKAKPAKEEPV”, for which the “transcriptional activation domain activity” value is 15600. For the sequence “EPLFLEAQLIHMINFFETFFHKYETSIDRHNLIRHNALEKYYQGINCGRHMLC”, the “transcriptional activation domain activity” value turned out to be 95700. As for “EPPPPPPEPEPQPPPKAEPPPEPEPEPVPKAEAPPPPPREEPPPPKKAPPPPK”, the “transcriptional activation domain activity” value came to 44000.

“EPQPPPKAEPPPEPEPEPVPKAEAPPPPREEPPPPKKAPPPPKPEPTPAPAPT”: the “transcriptional activation domain activity” value came out at 38600.

Turning to “EPRISEGGLAALVASSPCKPAAVPILLTGPPKQAKACSSRLTGTHRPASNCKS”, the “transcriptional activation domain activity” value was 36500. Under “EPRQTGDSRSQSSGNTGENEEDIAFASGLNGGTFDSMLEALPDDLYFTDFVSP” stands 88800; under “EPRSLPASDLNKITLAPPNEESRMPKSMLELTSYSSDLPPELVDIIPKTDLTV”, 58300. With “EPSRAGTPAPAPAAGEKKVGEAEGKVAEKAEGEGEGGKGAGEENNGKGKESVK”, the “transcriptional activation domain activity” value worked out at 19100. In the case of “EPVEAEAQAEAEAETKEPETKSEETAAASTETEKVEDKREATTATEKAQAAAS”, the “transcriptional activation domain activity” value was below 6570. For the sequence “EQAAKKKTAAPAAAPKAEAAKAPEVKAEAAAPAPEPEKPAAGGKKKKLNPALL”, the “transcriptional activation domain activity” value was determined as 52300. As for “EQAEKEAAAEKATPKEAAAKEESPKEESPKEESPEKKEVKKPVKKTPTKKNAK”, the “transcriptional activation domain activity” value is 27100. To “EQAPREGQGQGRGRGGRPRGEGRGRGGRGRGRGAPAGNGAAEAAATTAPKSTE” belongs 21700. To “EQDAFFPWLWIDPQFPEDPVLGSWDTFLGDFNCGMPLDDLDFALDMLQYSVGA” belongs 161000; to “EQDNVDSTQQSSTGRVKRSREDSASGERLRSTSRSRSKSPSGRHKRSRRHRRS”, 36100; to “EQDSWNAQLDFFNHIFYTQLYPAYDLPKKLQEDTELETEQENQMLNQVGNINY”, 109000. Regarding “EQEEEEEEEEAKQPKKKRAKKWFEDESSGDEDTGDRKKKKRKARAAAAAAAAA”, the “transcriptional activation domain activity” value worked out at 41300. Take “EQEVQEERARTGTKGRKRALDDDAAKEEKEEKKEKPEKKEKATKSGKATSAAS”: the “transcriptional activation domain activity” value came to 20800. On to “EQFVLRDCGLLLWIDLRFLCHCARICLSACLDNYVYGVANITGKLVRFWGLGV”, for which the “transcriptional activation domain activity” value was found to be 63400. Regarding “EQGDTPAKKKARKGASGTGRKRKTVGDDEAAGGNEQEGQPKKKARREKAAATE”, the “transcriptional activation domain activity” value was 29300.

In the case of “EQGQNLQGLLEFMCFEVGPMFLDLIIAFVYVYTLFDLYMSMILLFVGLAYVWI”, the “transcriptional activation domain activity” value was determined as 33200. “EQKVPEGVKDSWDASSDEEEEETAVKPSKPAAAANGKSPSAPAKAATHAKPAP”: the “transcriptional activation domain activity” value was found to be 23500. Turning to “EQLCMPIRRNDMRRRVELVRRCLLAALPSLPFWNEVCLWSTLNVFMSLLQDFF”, the “transcriptional activation domain activity” value was 82700.

In the case of “EQPSAPAAAANSEEPDNKEAEKTETGAAAENKEAVANNGSESAEKEPAETSAS”, the “transcriptional activation domain activity” value came out at 23500. To “EQQCICNYITSDPIWLIPLLGLLHRRLMYKVRLIYPFHISLANAFVTVCFHWL” belongs 80900; to “EQRAEGVGERRGEGGGEAQRDGAADARRHERAAEGPVRHGERRREVQEGVQGV”, 23500; to “EQSGNGDINNGTRNDIEINLYRSHPTMIMSKVMKREVKPLSENYIIIQDCFLK”, 62500. Regarding “EQVAPKFWKHGLFWAMCNEGMWLKELEFYYMINYYFKYLELLDTVFLALKKKP”, the “transcriptional activation domain activity” value came out at 40200. With “EQWECTKLVLFSHFTIELPIIWLFHPVAEALGMTTYQVPFPSLQKMAIQIFLF”, the “transcriptional activation domain activity” value is 39400. Regarding “EQYKLVCEALHERATFLEIAPYLAHQLPIMLPLYKWWQLPYYWAGCKVYDLLA”, the “transcriptional activation domain activity” value turned out to be 43400. As to “ERAVVGLLRICLILATRPSLRDQIFVSFDLLAGLPPAIANAVAEQVVAGLILV”, the “transcriptional activation domain activity” value was 35700. For the sequence “ERDDSRSERNVDDGDRRRAGRRRRDSRSSDDEHTTSRRRGGKDHADREDSDRR”, the “transcriptional activation domain activity” value came to 29100. For the sequence “ERDEEEDEDEEEEDEGKRRKRRGARSTAAISKRETGKAKDETREDPESRKKRG”, the “transcriptional activation domain activity” value stood at 23600. On to “ERDKRDDKDRERRHHKRSRHHDSDEERREGSSSRRHRHKSRRSKSPSSKVNEE”, for which the “transcriptional activation domain activity” value was 22800. Under “ERDMELLVGHFDFMAKEAFLADSISLCSTEEELERRLDTPVIQEDSPVMDNNT” stands 62900.

Take “ERDRKEQNGGGEGGRGGRHKKGARGAERRGHGSGSEGGGKAGANPERRTGGRG”: the “transcriptional activation domain activity” value was below 6570.
